In PMC5514147, “Characterization of HIV-1 integrase interaction with human Ku70 protein and initial implications for drug targeting” (Scientific Reports, 2017):

Target: T1, Ku70_1-250 mutant (N-terminal alpha/beta-domain of Ku70) with N-terminal GST-tag (human, UniProt P12956 1-250)
T1 construct: Ku70, human, residues 1-250 (N-terminal alpha/beta domain); also called Ku_1-250; Ku70 N-terminal domain; not shown: GST, N-terminal, kept
Assay: pull-down; GST-pull-down: GST-Ku70 proteins (or GST) held on glutathione-agarose, His6-IN proteins as prey; buffer A (20 mM Hepes pH 7.5, 100 mM NaCl, 7.5 mM MgCl2, 2 mM 2-mercaptoethanol, 50 ug/ml BSA, 0.1% NP40), room temperature, Western blot; Kd from increasing IN at 50 nM Ku70 mutant
Settings: both partners purified

T1 sequence (P12956 1-250, change not shown): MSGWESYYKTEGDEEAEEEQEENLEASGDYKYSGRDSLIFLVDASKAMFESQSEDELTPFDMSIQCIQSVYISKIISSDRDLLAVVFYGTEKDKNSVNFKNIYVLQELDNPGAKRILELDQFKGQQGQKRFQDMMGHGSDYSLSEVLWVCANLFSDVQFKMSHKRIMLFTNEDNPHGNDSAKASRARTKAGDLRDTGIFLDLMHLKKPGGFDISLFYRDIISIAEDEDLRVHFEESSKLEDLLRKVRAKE

B1: IN_1-220 (HIV-1 integrase with truncated C-terminal domain), N-terminal His6-tag (domain or fragment)
chain: FLDGIDKAQDEHEKYHSNWRAMASDFNLPPVVAKEIVASCDKCQLKGEAMHGQVDCSPGIWQLDCTHLEGKVILVAVHVASGYIEAEVIPAETGQETAYFLLKLAGRWPVKTIHTDNGSNFTGATVRAACWWAGIKQEFGIPYNPQSQGVVESMNKELKKIIGQVRDQAEHLKTAVQMAVFIHNFKRKGGIGGYSAGERIVDIIATDIQTKELQKQITKI
notes: not shown: His6, N-terminal, kept
Q: With B1 as the binder, how does the Kd read?
A: 120 ± 30 nM
